The source of these data is patent US20160139131A1 (BIOALLIANCE C V, published 2016).

Experiment [1] has as its target CD43 on human peripheral T cells (human) (UniProt P16150). Briefly: flow cytometry on peripheral T cells.
Experiment [2] concerns the target CD43 expressed on the surface of COLO 205 colorectal cancer cells (human) (UniProt P16150). Put plainly: flow cytometry on COLO 205 cells.
Experiment [3] has the same target. Put plainly: flow cytometry on COLO 205 cells; signal of biotinylated 5F1 (1 microgram/ml, competitor) with unlabeled antibody at 0.03 microgram/ml.
Experiment [4] has the same target. Put plainly: flow cytometry on COLO 205 cells; signal of biotinylated 5F1 (1 microgram/ml, competitor) with unlabeled antibody at 0.82 microgram/ml.
The target of experiment [5] is CD43 expressed on the surface of NCI-N87 gastric cancer cells (human) (UniProt P16150). Put plainly: flow cytometry on NCI-N87 cells.
CD43 expressed on the surface of NCI-N87 gastric cancer cells (human), sequence (P16150 20-400): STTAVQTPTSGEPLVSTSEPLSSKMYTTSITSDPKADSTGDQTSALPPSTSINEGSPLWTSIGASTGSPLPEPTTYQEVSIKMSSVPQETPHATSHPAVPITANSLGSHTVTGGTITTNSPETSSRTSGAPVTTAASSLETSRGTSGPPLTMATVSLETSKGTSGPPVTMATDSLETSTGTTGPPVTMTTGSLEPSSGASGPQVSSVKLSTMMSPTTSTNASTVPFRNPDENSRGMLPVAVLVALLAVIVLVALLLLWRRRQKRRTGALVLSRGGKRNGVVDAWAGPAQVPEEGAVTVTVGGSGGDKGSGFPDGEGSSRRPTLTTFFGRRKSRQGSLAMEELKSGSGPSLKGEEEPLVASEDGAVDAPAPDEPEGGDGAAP
Experiment [6] deals with CD43 expressed on the surface of COLO 205 colorectal cancer cells (human) (UniProt P16150). Briefly: flow cytometry on COLO 205 cells; signal of biotinylated 5F1 (1 microgram/ml, competitor) with unlabeled antibody at 66.7 microgram/ml.
CD43 expressed on the surface of COLO 205 colorectal cancer cells (human), sequence (P16150 20-400): as above
For experiment [7] the target is unchanged. Briefly: flow cytometry on COLO 205 cells; signal of biotinylated 5F1 (1 microgram/ml, competitor) with unlabeled antibody at 7.4 microgram/ml.
For experiment [8] the target is unchanged. Put plainly: cell-based or functional assay.
The next experiment concerns the target T1, 9F9-01-03-18.
T1 construct: Tested as a fusion to an unnamed carrier protein
T1 peptide: DARYSHDPAWPY
Briefly: sandwich ELISA, 5F1 coated, peptide-carrier fusion.

For a further experiment, the target named is T2, 5F1-01-2-04 (also: fused to unnamed carrier protein).
T2 construct: Tested as a fusion to an unnamed carrier protein; not shown: the unnamed carrier protein to which the 12-mer was fused (and any linker to it)
T2 peptide: WPIANHENALSA
Briefly: sandwich ELISA, 5F1 coated, peptide-carrier fusion.

Another experiment addresses T3, 9F9-01-03-17.
T3 construct: Tested as a fusion to an unnamed carrier protein
T3 peptide: AGQKWDPEWPHS
Briefly: sandwich ELISA, 5F1 coated, peptide-carrier fusion.

For another experiment, the target named is T4, 9F9-01-03-24.
T4 construct: Tested as a fusion to an unnamed carrier protein
T4 peptide: AETDYDPDHFTP
Briefly: sandwich ELISA, 5F1 coated, peptide-carrier fusion.

The target of another experiment is T5, 9F9-01-03-21.
T5 construct: Tested as a fusion to an unnamed carrier protein
T5 peptide: YDHHWTNPPTQK
Briefly: sandwich ELISA, 5F1 coated, peptide-carrier fusion.

The next experiment deals with T6, 9F9-01-03-25.
T6 construct: Tested as a fusion to an unnamed carrier protein
T6 peptide: EPNMDPNWASPS
Put plainly: sandwich ELISA, 5F1 coated, peptide-carrier fusion.

The next experiment concerns the target T7, 5F1-01-2-23.
T7 construct: Tested as a fusion to an unnamed carrier protein
T7 peptide: WPIPTLMELPSA
Put plainly: sandwich ELISA, 5F1 coated, peptide-carrier fusion.

In experiment [9] the target is CD43 on Jurkat cells (lymphoblastoid leukemia cell line; ATCC TIB-152) (human) (UniProt P16150). Briefly: flow cytometry on Jurkat cells.
CD43 on Jurkat cells (lymphoblastoid leukemia cell line; ATCC TIB-152) (human), sequence (P16150 20-400): as above
In experiment [10] the target is CD43 expressed on the surface of COLO 205 colorectal cancer cells (human) (UniProt P16150). Briefly: flow cytometry on COLO 205 cells; signal of biotinylated 5F1 (1 microgram/ml, competitor) with unlabeled antibody at 22.2 microgram/ml.
Experiment [11] shares this target. Put plainly: flow cytometry on COLO 205 cells; signal of biotinylated 5F1 (1 microgram/ml, competitor) with unlabeled antibody at 0.09 microgram/ml.
For experiment [12] the target is unchanged. Briefly: flow cytometry on COLO 205 cells; signal of biotinylated 5F1 (1 microgram/ml, competitor) with unlabeled antibody at 0.273 microgram/ml.
Experiment [13] shares this target. Briefly: flow cytometry on COLO 205 cells; signal of biotinylated 5F1 (1 microgram/ml, competitor) with unlabeled antibody at 2.46 microgram/ml.
Experiment [14] has the same target. Put plainly: flow cytometry on COLO 205 cells; signal of biotinylated 5F1 (1 microgram/ml, competitor) with unlabeled antibody at 200 microgram/ml.
Another experiment addresses T8, 5F1-01-2-14.
T8 construct: Tested as a fusion to an unnamed carrier protein
T8 peptide: WPIHSAHVRYTT
Briefly: sandwich ELISA, 5F1 coated, peptide-carrier fusion. How it is done:
(§1) To further confirm the tripeptide epitope that antibody 5F1 binds, Sandwich ELISA was performed. 96-well microtiter plates were coated with antibody (5F1 or control antibody 9E10) with 50 μl per well at the concentration of 1 μg/ml over night at 4° C. Plates were blocked by incubation with 0.25% of BSA in PBS (150 μl/well) for 1 hour at 37° C. Plates were then incubated with fusion proteins containing various fragments of polypeptides fused to a carrier protein for 2 hours at room temperature. After washing 4 times with PBS containing 0.05% of Tween 20, plates were then incubated with carrier protein-specific antibody at 2 μg/ml for 1.5 hours at room temperature. After incubation, plates were washed 4 times with PBST. 50 μl of 1 to 3000 diluted Goat anti-carrier protein-specific antibody conjugated with HRP was then added to each well and the plates were incubated for 1 hour at 37° C. Enzyme reaction was carried out by adding substrate of the HRP enzyme to determine the reactivity of the designated polypeptide to these to these two antibodies (5F1 and 9E10). […] Monoclonal antibody 5F1 recognized a tripeptide WPI epitope structure.

In the next experiment the target is T9, 5F1-01-2-09 (also: fused to unnamed carrier protein).
T9 construct: Tested as a fusion to an unnamed carrier protein; not shown: the unnamed carrier protein to which the 12-mer was fused (and any linker to it)
T9 peptide: WPIAPNRYLLSS
Briefly: sandwich ELISA, 5F1 coated, peptide-carrier fusion. How it is done:
as §1

In the next experiment the target is T10, 5F1-01-2-13 (also: fused to unnamed carrier protein).
T10 construct: Tested as a fusion to an unnamed carrier protein; not shown: the unnamed carrier protein to which the 12-mer was fused (and any linker to it)
T10 peptide: WPISPQPGARPV
Put plainly: sandwich ELISA, 5F1 coated, peptide-carrier fusion. How it is done:
as §1

The target in the next experiment is T11, 5F1-01-2-16 (also: fused to unnamed carrier protein).
T11 construct: Tested as a fusion to an unnamed carrier protein; not shown: the unnamed carrier protein to which the 12-mer was fused (and any linker to it)
T11 peptide: WPIDIPYAWDFS
Put plainly: sandwich ELISA, 5F1 coated, peptide-carrier fusion. The protocol:
as §1

For a further experiment, the target named is T12, 5F1-01-2-18 (also: fused to unnamed carrier protein).
T12 construct: Tested as a fusion to an unnamed carrier protein; not shown: the unnamed carrier protein to which the 12-mer was fused (and any linker to it)
T12 peptide: WPISGKHSFWSL
Put plainly: sandwich ELISA, 5F1 coated, peptide-carrier fusion. How it is done: as §1

A further experiment concerns the target T13, 5F1-01-2-17 (also: fused to unnamed carrier protein).
T13 construct: Tested as a fusion to an unnamed carrier protein; not shown: the unnamed carrier protein to which the 12-mer was fused (and any linker to it)
T13 peptide: WPILDHAVSRPS
Put plainly: sandwich ELISA, 5F1 coated, peptide-carrier fusion. How it is done:
as §1

In another experiment the target is T14, 5F1-01-2-06 (also: fused to unnamed carrier protein).
T14 construct: Tested as a fusion to an unnamed carrier protein; not shown: the unnamed carrier protein to which the 12-mer was fused (and any linker to it)
T14 peptide: WPIPPEVEPFKH
Briefly: sandwich ELISA, 5F1 coated, peptide-carrier fusion. The protocol: as §1

A further experiment concerns the target T15, 5F1-01-2-22.
T15 construct: Tested as a fusion to an unnamed carrier protein
T15 peptide: WPITNSDSRITW
Put plainly: sandwich ELISA, 5F1 coated, peptide-carrier fusion. How it is done:
as §1

The next experiment concerns the target T16, 5F1-01-2-21 (also: fused to unnamed carrier protein, order not given here).
T16 construct: Tested as a fusion to an unnamed carrier protein; not shown: the unnamed carrier protein to which the 12-mer was fused (and any linker to it)
T16 peptide: WPIDLMSETPIL
Briefly: sandwich ELISA, 5F1 coated, peptide-carrier fusion. How it is done:
as §1

No end group written: not given here.

CD43 on human peripheral T cells (human), sequence (P16150 20-400): as above

For “MEM-59 (anti-CD43; Biovendor, Candler, NC) (antibody)”, the results for the % of Binding in experiment [1] and in experiment [2] were above 80% and above 70%, respectively.

B1: monoclonal antibody 5F1 (antibody, V domains shown)
VH: EVQLQQSGPELVKPGASVRMSCTASGYTFTSYVMHWIKQKPGQGLDWIGYINPYNGGTQYNEKFKGKATLTSDKSSSTAYMELSSLTSEDSAVYYCARRTFPYYFDYWGQGTTLTVSS
VL: DVLMTQTPLSLPVSLGDQASISCRSSQSILHSNGNTYLEWYLQKPGQSPKLLIYKVSNRFSGVPDRFSGSGSGTDFTLKISRVEAEDLGVYYCFQGSHAPLTFGAGTKLELK
notes: also called m5F1; m133-5F1
B1: the Mean Fluorescence Intensity amounted to 888 in [3]; 1000 in [4]; 60.3 in experiment [6]; 129 in [7]; 21.7 in [10]; 825 in experiment [11]. For the same molecule, the Mean Fluorescence Intensity in experiment [12] is 1030; in experiment [13], 733; in [14], 9.78. In addition, the % of Binding in experiment [1] is below 10%; in [5], above 80%; in experiment [2], above 80%; in experiment [9], below 10%. Moreover, the % Apoptosis (annexin-V+) in experiment [8] is above 40%. The binding result in the experiment with 9F9-01-03-18 is reported as “no binding”; with 5F1-01-2-04, “binds”; with 9F9-01-03-17 it was “no binding”; with 9F9-01-03-24 it was “no binding”; with 9F9-01-03-21, “no binding”; in the experiment with 9F9-01-03-25, “no binding”. Moreover, the binding result with 5F1-01-2-23, with 5F1-01-2-14, with 5F1-01-2-09, with 5F1-01-2-13, with 5F1-01-2-16 and with 5F1-01-2-18 was “binds” in each case. The binding result with 5F1-01-2-17, in the experiment with 5F1-01-2-06, in the experiment with 5F1-01-2-22 and with 5F1-01-2-21 was “binds” each time.
